Like-named read-outs stand apart in the source and are kept apart here.
Tests used:
Assay in all cases: limited trypsin proteolysis
SpyCas9 [1] = molecular target: T1, SpyCas9 (Streptococcus pyogenes, UniProt Q99ZW2 1-1368)
FnoCas9 [2] = molecular target: T2, FnoCas9 (Francisella tularensis novicida, UniProt A0Q5Y3 1-1629)
SpyCas9 [3] = molecular target: T1, SpyCas9; remark: listed apart in the source
FnoCas9 [4] = molecular target: T2, FnoCas9; remark: listed apart in the source

T1 sequence (Q99ZW2 whole entry): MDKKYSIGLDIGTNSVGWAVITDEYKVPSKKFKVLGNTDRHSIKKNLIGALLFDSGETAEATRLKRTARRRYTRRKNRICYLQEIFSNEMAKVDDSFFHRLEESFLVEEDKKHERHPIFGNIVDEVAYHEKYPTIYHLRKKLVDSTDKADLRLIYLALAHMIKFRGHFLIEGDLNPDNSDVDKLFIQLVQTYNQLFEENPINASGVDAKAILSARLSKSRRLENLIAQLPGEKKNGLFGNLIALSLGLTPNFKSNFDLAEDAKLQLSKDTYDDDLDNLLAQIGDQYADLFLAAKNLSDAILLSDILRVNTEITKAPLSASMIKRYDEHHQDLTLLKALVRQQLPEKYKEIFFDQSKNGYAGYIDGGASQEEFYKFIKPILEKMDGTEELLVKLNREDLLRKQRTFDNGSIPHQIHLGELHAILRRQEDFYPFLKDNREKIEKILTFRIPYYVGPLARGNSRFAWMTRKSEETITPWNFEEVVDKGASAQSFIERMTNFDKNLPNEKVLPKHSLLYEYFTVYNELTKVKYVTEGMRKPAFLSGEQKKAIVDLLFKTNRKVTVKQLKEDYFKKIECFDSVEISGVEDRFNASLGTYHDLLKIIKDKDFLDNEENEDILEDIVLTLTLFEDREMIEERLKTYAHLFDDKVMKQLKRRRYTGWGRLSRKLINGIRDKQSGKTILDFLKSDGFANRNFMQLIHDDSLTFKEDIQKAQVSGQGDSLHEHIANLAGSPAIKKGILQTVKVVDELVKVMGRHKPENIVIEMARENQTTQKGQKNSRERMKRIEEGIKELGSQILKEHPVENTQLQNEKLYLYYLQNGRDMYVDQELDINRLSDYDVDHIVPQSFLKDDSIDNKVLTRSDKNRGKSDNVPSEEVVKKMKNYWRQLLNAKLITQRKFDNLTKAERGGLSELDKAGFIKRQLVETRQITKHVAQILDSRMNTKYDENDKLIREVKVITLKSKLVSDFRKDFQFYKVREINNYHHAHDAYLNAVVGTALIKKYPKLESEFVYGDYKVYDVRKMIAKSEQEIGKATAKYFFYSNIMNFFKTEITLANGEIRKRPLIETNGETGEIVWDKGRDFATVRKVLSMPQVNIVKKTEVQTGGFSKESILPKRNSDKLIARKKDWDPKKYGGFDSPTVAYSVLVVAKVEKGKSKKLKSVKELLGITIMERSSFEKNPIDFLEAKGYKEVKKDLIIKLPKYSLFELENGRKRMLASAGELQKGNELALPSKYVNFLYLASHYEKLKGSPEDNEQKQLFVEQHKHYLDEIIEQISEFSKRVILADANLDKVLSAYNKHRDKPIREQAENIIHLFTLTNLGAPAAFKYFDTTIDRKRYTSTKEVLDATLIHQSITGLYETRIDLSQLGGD
T2 sequence (A0Q5Y3 whole entry): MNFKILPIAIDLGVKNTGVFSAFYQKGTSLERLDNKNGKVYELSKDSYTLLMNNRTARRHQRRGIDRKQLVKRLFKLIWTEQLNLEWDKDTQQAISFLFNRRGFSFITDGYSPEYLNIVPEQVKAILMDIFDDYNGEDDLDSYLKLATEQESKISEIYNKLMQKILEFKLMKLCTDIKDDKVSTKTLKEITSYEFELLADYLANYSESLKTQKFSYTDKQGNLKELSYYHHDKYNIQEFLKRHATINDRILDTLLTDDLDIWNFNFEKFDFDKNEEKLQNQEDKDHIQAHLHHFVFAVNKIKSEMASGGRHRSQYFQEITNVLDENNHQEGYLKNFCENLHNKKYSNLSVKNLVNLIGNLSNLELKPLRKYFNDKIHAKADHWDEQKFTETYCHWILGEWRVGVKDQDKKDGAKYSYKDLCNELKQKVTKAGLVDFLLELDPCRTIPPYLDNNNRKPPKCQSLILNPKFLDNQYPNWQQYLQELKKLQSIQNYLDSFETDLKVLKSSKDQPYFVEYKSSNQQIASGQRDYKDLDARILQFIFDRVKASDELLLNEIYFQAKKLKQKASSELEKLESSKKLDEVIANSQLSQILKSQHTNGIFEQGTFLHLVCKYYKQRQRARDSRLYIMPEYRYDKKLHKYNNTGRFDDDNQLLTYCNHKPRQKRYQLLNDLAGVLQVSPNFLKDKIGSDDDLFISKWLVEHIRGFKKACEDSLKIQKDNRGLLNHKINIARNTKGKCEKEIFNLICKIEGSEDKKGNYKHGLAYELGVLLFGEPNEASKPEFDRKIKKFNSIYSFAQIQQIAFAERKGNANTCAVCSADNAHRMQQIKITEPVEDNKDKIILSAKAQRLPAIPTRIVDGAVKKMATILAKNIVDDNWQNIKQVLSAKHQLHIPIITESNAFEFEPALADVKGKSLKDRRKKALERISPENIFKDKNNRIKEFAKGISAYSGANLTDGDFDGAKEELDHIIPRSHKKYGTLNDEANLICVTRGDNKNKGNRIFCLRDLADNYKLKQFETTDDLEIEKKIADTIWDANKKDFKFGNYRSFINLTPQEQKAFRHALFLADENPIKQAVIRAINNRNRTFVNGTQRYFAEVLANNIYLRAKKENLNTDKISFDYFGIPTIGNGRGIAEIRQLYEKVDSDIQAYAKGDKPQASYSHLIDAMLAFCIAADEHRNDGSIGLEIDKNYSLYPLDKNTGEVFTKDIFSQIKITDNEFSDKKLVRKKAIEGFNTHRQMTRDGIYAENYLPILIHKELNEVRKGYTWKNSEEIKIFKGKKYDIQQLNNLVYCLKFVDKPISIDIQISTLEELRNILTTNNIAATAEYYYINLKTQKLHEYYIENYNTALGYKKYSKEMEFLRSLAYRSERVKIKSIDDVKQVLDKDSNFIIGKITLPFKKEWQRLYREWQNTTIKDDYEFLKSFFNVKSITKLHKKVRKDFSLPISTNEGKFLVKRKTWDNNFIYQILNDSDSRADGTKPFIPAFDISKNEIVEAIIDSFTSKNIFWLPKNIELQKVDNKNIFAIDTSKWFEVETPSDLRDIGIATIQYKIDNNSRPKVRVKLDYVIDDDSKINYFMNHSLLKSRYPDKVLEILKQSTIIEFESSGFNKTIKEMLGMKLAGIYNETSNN

B1: SpyCas9 sgRNA (structured_RNA)
RNA: GGGAUUUCUUCUUGCGCUUUUUGUUUUAGAGCUAUGCUGUUUUGGAAACAAAACAGCAUAGCAAGUUAAAAUAAGGCUAGUCCGUUAUCAACUUGAAAAAGUGGCACCGAGUCGGUGCUUUUUU
- binding result (SpyCas9 [1]): binds

B2: 60-mer ss oligo (197-FR) (ssDNA)
DNA: AGCAGATTGTACTGAGAGTGCACCATATGCGGTGTGAAATACCGCACAGATGCGTAAGGA
- binding result (FnoCas9 [2]): binds
- binding result (SpyCas9 [3]): binds

B3: FnoCas9 crRNA-tracrRNA (structured_RNA)
RNA 1: GGGAUAACUCAAUUUGUAAAAAAGUUUCAGUUGCUGAAUUAUUUGGUAAAC
RNA 2: GGGCCAAAUAAUUAAUGCUCUGUAAUCAUUUAAAAGUAUUUUGAACGGACCUCUGUUUGACACGUCUGAAUAACUAAAAAGCAAAAAUUUGCCACCUAAGUGGCUUUUUUU
- binding result (FnoCas9 [4]): binds

— publication PMC5760271
